Key:
[1] = target: FITC-labeled native contortrostatin (Agkistrodon contortrix contortrix); experiment: fluorescence polarisation
[2] = target: FITC-labeled vicrostatin (Agkistrodon contortrix contortrix | not stated); experiment: fluorescence polarisation

Row | Substance | Kd [1] [nM] | Kd [2] [nM]
1 | purified soluble αvβ3 integrin (from UniProt P06756 31-1048; P05106 27-718) (receptor) | 6.6 | 7.4
2 | purified soluble αvβ5 integrin (from UniProt P06756 31-1048; P18084 24-719) (receptor) | 19.5 | 41.2
3 | soluble recombinant α5β1 integrin (from UniProt P08648 42-1049; P05556 21-728) (receptor) | 191 | 15.2

— article PMC3130806
